Test results reported in the supplement of paper PMC10065799, “High-throughput profiling of sequence recognition by tyrosine kinases and SH2 domains using bacterial peptide display” (eLife, 2023).

What follows are sequences tested on Fer (mouse) (assay: phosphorylation enrichment, bacterial display (enrichment ratio); higher = better substrate or ligand; peptides without Tyr show the background).
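Also: 11-residue human phosphosite peptides and single-mutation variants displayed on the E. coli surface, counted by deep sequencing, each peptide's frequency after selection divided by its frequency in the unselected input library; frequency after pTyr selection over input frequency; kinase dosed for 20-30% of maximal phosphorylation in three min.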

Row | Sequence | phosphorylation enrichment
1 | LFQAKYQIRFR [CRLF1_Y272_YF] | 0.972
2 | ETALHYIHDGI [GATD3A_Y250] | 0.525
3 | ECKFLYSRKEG [PTPN11_Y263_L261F] | 0.362
4 | GPGLVYRVANK [FLNB_Y1833_G1834R] | 0.445
5 | RPSELYFSKIS [SMG1_Y2253_G2258S_YF] | 0.724
6 | VRSNHYDPEED [TJP1_Y1346] | 0.49
7 | TDDMRYPMKSE [TGDS_Y302_N298D] | 0.518
8 | ITNLLYHVVGG [GBA_Y412_W417G] | 1.32
9 | VKANTYENYWP [GATM_Y100_K102N] | 1.2
10 | GETEQYVGGGG [FAT4_Y4980_A4977T] | 0.436
11 | IYQASYYRRGD [LTK_Y676_R673Q] | 1.43
12 | RPAPQYPHQVP [ADAM12_Y895] | 0.685
13 | RTLTHYKSAVK [ASNS_Y555] | 0.312
14 | EWKQNYEESQS [MYH7_Y1460_K1459N] | 0.792
15 | SSPQLYLVPFL [TAF4_Y652_P651L] | 1.23
16 | REVPVYTFSEP [FAM120B_Y368_D370Y_YF] | 11.1
17 | VDGSVYKLHPS [GCK_Y413] | 0.642

Row | Sequence | phosphorylation enrichment
18 | QRTMKYTTATG [MCCC1_Y41] | 0.722
19 | IALSKYGRVKR [FGF6_Y186] | 0.372
20 | KFEDVYVRICL [B3GALNT1_Y269_G271R] | 0.593
21 | KIEGIYARDET [RPL35A_Y34_V33I] | 0.491
22 | NHRNQYQALKP [CLSPN_Y887] | 0.356
23 | IGMLIYFARKA [VCAM1_Y718_I716L] | 0.425
24 | VKANTYENFWP [GATM_Y100_K102N_YF] | 2.02
25 | NTFEKYLGEEF [TF_Y669_YF] | 0.491
26 | PDGHEYIYVDP [PDGFRA_Y572] | 2.64
27 | PGPQSYPIVTG [PAX5_Y299] | 0.744
28 | GDAMLYFPSVS [GPR143_Y177_A173D_YF] | 0.521
29 | KTDKKYLMIEE [BAG3_Y451] | 0.647
30 | DKEKWYPLGNS [PIK3C2G_Y1438] | 0.422
31 | NFSKMYCNPDA [KNL1_Y489_A486S_YF] | 0.563
32 | NTGDDYDLFGG [PTPN11_Y63_Y62D_YF] | 0.623
33 | HLQDEYDFKCK [STAT1_Y170_D165H] | 0.471

These sequences were tested against FGFR1 (UniProt P11362) in the same assay as above.
Chain of FGFR1 (P11362 whole entry, looked up): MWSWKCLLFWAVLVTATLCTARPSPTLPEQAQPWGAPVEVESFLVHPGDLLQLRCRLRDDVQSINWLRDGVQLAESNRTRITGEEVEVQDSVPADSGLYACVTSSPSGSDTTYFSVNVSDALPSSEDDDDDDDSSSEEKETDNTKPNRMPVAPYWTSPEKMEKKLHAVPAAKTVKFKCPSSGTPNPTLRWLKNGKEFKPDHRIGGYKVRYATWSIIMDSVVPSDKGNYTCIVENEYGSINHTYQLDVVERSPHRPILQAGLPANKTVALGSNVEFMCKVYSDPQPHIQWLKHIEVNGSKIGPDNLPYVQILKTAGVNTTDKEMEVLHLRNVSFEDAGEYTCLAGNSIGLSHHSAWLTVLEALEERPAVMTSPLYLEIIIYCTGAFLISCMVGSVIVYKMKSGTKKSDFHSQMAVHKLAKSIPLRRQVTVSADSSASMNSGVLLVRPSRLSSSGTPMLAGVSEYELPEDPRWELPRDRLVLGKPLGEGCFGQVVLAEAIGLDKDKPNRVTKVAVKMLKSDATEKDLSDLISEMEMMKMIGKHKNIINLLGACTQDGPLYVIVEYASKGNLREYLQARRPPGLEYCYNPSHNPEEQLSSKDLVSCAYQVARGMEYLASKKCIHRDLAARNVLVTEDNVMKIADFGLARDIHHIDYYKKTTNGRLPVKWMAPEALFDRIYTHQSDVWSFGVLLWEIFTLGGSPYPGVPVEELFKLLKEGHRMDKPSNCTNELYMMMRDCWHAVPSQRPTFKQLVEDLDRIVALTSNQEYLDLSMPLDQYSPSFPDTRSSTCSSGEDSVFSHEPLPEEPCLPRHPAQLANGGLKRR

Row | Sequence | phosphorylation enrichment
34 | LFQAKYQIRFR [CRLF1_Y272_YF] | 1.03
35 | ETALHYIHDGI [GATD3A_Y250] | 0.412
36 | ECKFLYSRKEG [PTPN11_Y263_L261F] | 0.495
37 | GPGLVYRVANK [FLNB_Y1833_G1834R] | 0.515
38 | RPSELYFSKIS [SMG1_Y2253_G2258S_YF] | 1.22
39 | VRSNHYDPEED [TJP1_Y1346] | 0.66
40 | TDDMRYPMKSE [TGDS_Y302_N298D] | 0.529
41 | ITNLLYHVVGG [GBA_Y412_W417G] | 6.43
42 | VKANTYENYWP [GATM_Y100_K102N] | 1.17
43 | GETEQYVGGGG [FAT4_Y4980_A4977T] | 0.437
44 | IYQASYYRRGD [LTK_Y676_R673Q] | 0.479
45 | RPAPQYPHQVP [ADAM12_Y895] | 0.608
46 | RTLTHYKSAVK [ASNS_Y555] | 0.35
47 | EWKQNYEESQS [MYH7_Y1460_K1459N] | 0.546
48 | SSPQLYLVPFL [TAF4_Y652_P651L] | 2.18
49 | REVPVYTFSEP [FAM120B_Y368_D370Y_YF] | 1.14
50 | VDGSVYKLHPS [GCK_Y413] | 0.536

Row | Sequence | phosphorylation enrichment
51 | QRTMKYTTATG [MCCC1_Y41] | 0.692
52 | IALSKYGRVKR [FGF6_Y186] | 0.359
53 | KFEDVYVRICL [B3GALNT1_Y269_G271R] | 0.512
54 | KIEGIYARDET [RPL35A_Y34_V33I] | 0.585
55 | NHRNQYQALKP [CLSPN_Y887] | 0.351
56 | IGMLIYFARKA [VCAM1_Y718_I716L] | 0.461
57 | VKANTYENFWP [GATM_Y100_K102N_YF] | 0.415
58 | NTFEKYLGEEF [TF_Y669_YF] | 0.509
59 | PDGHEYIYVDP [PDGFRA_Y572] | 11.7
60 | PGPQSYPIVTG [PAX5_Y299] | 0.504
61 | GDAMLYFPSVS [GPR143_Y177_A173D_YF] | 0.801
62 | KTDKKYLMIEE [BAG3_Y451] | 0.463
63 | DKEKWYPLGNS [PIK3C2G_Y1438] | 0.384
64 | NFSKMYCNPDA [KNL1_Y489_A486S_YF] | 0.46
65 | NTGDDYDLFGG [PTPN11_Y63_Y62D_YF] | 0.546
66 | HLQDEYDFKCK [STAT1_Y170_D165H] | 0.581

The sequences below were run on AncSZ in the same assay as above.

Row | Sequence | phosphorylation enrichment
67 | LFQAKYQIRFR [CRLF1_Y272_YF] | 1.83
68 | ETALHYIHDGI [GATD3A_Y250] | 0.818
69 | ECKFLYSRKEG [PTPN11_Y263_L261F] | 0.969
70 | GPGLVYRVANK [FLNB_Y1833_G1834R] | 0.785
71 | RPSELYFSKIS [SMG1_Y2253_G2258S_YF] | 0.933
72 | VRSNHYDPEED [TJP1_Y1346] | 1.27
73 | TDDMRYPMKSE [TGDS_Y302_N298D] | 0.77
74 | ITNLLYHVVGG [GBA_Y412_W417G] | 1.18
75 | VKANTYENYWP [GATM_Y100_K102N] | 0.893
76 | GETEQYVGGGG [FAT4_Y4980_A4977T] | 0.889
77 | IYQASYYRRGD [LTK_Y676_R673Q] | 0.822
78 | RPAPQYPHQVP [ADAM12_Y895] | 1.3
79 | RTLTHYKSAVK [ASNS_Y555] | 0.532
80 | EWKQNYEESQS [MYH7_Y1460_K1459N] | 1.16
81 | SSPQLYLVPFL [TAF4_Y652_P651L] | 1.3
82 | REVPVYTFSEP [FAM120B_Y368_D370Y_YF] | 1.83
83 | VDGSVYKLHPS [GCK_Y413] | 0.581

Row | Sequence | phosphorylation enrichment
84 | QRTMKYTTATG [MCCC1_Y41] | 0.602
85 | IALSKYGRVKR [FGF6_Y186] | 0.61
86 | KFEDVYVRICL [B3GALNT1_Y269_G271R] | 1.64
87 | KIEGIYARDET [RPL35A_Y34_V33I] | 0.887
88 | NHRNQYQALKP [CLSPN_Y887] | 0.739
89 | IGMLIYFARKA [VCAM1_Y718_I716L] | 0.934
90 | VKANTYENFWP [GATM_Y100_K102N_YF] | 0.926
91 | NTFEKYLGEEF [TF_Y669_YF] | 1.08
92 | PDGHEYIYVDP [PDGFRA_Y572] | 5.55
93 | PGPQSYPIVTG [PAX5_Y299] | 0.611
94 | GDAMLYFPSVS [GPR143_Y177_A173D_YF] | 0.721
95 | KTDKKYLMIEE [BAG3_Y451] | 0.867
96 | DKEKWYPLGNS [PIK3C2G_Y1438] | 0.762
97 | NFSKMYCNPDA [KNL1_Y489_A486S_YF] | 0.94
98 | NTGDDYDLFGG [PTPN11_Y63_Y62D_YF] | 1.42
99 | HLQDEYDFKCK [STAT1_Y170_D165H] | 1.33

Each sequence was assayed against Hck (UniProt P08631) in the same assay as above.
Chain of Hck (P08631 whole entry, looked up): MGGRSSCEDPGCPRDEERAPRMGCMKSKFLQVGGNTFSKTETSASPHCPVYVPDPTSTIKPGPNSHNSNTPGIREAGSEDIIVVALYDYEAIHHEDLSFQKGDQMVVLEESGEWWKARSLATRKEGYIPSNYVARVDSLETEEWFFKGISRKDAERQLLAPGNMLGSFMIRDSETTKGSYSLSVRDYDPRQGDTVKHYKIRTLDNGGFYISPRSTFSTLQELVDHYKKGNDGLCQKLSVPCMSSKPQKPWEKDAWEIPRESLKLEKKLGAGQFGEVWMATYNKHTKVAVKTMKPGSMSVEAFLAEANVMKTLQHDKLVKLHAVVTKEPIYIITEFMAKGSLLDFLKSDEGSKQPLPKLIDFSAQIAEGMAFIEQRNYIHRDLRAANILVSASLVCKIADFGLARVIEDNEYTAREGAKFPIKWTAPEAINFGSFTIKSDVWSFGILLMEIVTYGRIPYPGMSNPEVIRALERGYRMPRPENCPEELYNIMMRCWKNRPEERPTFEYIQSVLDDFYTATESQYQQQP

Row | Sequence | phosphorylation enrichment
100 | LFQAKYQIRFR [CRLF1_Y272_YF] | 0.524
101 | ETALHYIHDGI [GATD3A_Y250] | 0.432
102 | ECKFLYSRKEG [PTPN11_Y263_L261F] | 0.618
103 | GPGLVYRVANK [FLNB_Y1833_G1834R] | 0.498
104 | RPSELYFSKIS [SMG1_Y2253_G2258S_YF] | 2.85
105 | VRSNHYDPEED [TJP1_Y1346] | 0.579
106 | TDDMRYPMKSE [TGDS_Y302_N298D] | 0.42
107 | ITNLLYHVVGG [GBA_Y412_W417G] | 5.76
108 | VKANTYENYWP [GATM_Y100_K102N] | 1.65
109 | GETEQYVGGGG [FAT4_Y4980_A4977T] | 0.467
110 | IYQASYYRRGD [LTK_Y676_R673Q] | 10.6
111 | RPAPQYPHQVP [ADAM12_Y895] | 0.582
112 | RTLTHYKSAVK [ASNS_Y555] | 0.5
113 | EWKQNYEESQS [MYH7_Y1460_K1459N] | 0.605
114 | SSPQLYLVPFL [TAF4_Y652_P651L] | 0.907
115 | REVPVYTFSEP [FAM120B_Y368_D370Y_YF] | 4.36
116 | VDGSVYKLHPS [GCK_Y413] | 1.03

Row | Sequence | phosphorylation enrichment
117 | QRTMKYTTATG [MCCC1_Y41] | 0.551
118 | IALSKYGRVKR [FGF6_Y186] | 0.412
119 | KFEDVYVRICL [B3GALNT1_Y269_G271R] | 0.479
120 | KIEGIYARDET [RPL35A_Y34_V33I] | 1.12
121 | NHRNQYQALKP [CLSPN_Y887] | 0.504
122 | IGMLIYFARKA [VCAM1_Y718_I716L] | 0.536
123 | VKANTYENFWP [GATM_Y100_K102N_YF] | 2.1
124 | NTFEKYLGEEF [TF_Y669_YF] | 0.479
125 | PDGHEYIYVDP [PDGFRA_Y572] | 1.6
126 | PGPQSYPIVTG [PAX5_Y299] | 0.565
127 | GDAMLYFPSVS [GPR143_Y177_A173D_YF] | 0.692
128 | KTDKKYLMIEE [BAG3_Y451] | 0.516
129 | DKEKWYPLGNS [PIK3C2G_Y1438] | 0.372
130 | NFSKMYCNPDA [KNL1_Y489_A486S_YF] | 0.488
131 | NTGDDYDLFGG [PTPN11_Y63_Y62D_YF] | 0.618
132 | HLQDEYDFKCK [STAT1_Y170_D165H] | 0.589
